From patent US20250339569A1 (3B PHARMACEUTICALS, published 2025)
Starred links: 1 amine or outer side, 2 acyl side, 3 side chain; linkers in the order of their positions; H or OH if unused. Positions of bridges follow the written chain, without caps; N, C: chain ends. Non-standard residues stand in square brackets, D forms with d. Primed or numbered codes have the meaning given here. *: point of attachment. Ttds = 1,13-diamino-4,7,10-trioxatridecan-succinamic acid spacer, NCCCOCCOCCOCCCNC(=O)CCC(=O)*; APAc″ = 2-(4-(amino)piperidin-1-yl)acetic acid, NC1CCN(CC(=O)*)CC1; DOTA = O=C(O)CN1CCN(CC(=O)O)CCN(CC(=O)*)CCN(CC(=O)O)CC1; Ttds(3) = NCCCOCCOCCOCCCNC(=O)CCC(=O)*; mXylylene = c1cc(C[*:1])cc(C[*:2])c1; Hydrocinnamoyl = O=C(CCc1ccccc1)*; tBuAla = CC(C)(C)C[C@H](N)C(=O)O; Pen = CC(C)(S)[C@H](N)C(=O)O; dPip = O=C(O)[C@H]1CCCCN1; Nle = CCCC[C@H](N)C(=O)O; 4Amc = not defined here; Bz′ = not defined here; Hexanoyl = CCCCCC(=O)*; PhAc = O=C(Cc1ccccc1)*; AEEA = NCCOCCOCC(=O)O; Aib = CC(C)(N)C(=O)O; Sar = CNCC(=O)O

Target: human carbonic anhydrase 9 (CAIX) (human, UniProt Q16790 38-459)
Assay: FACS competition on HT-29 cells against tracer 3BP-2776; pIC50 category A = pIC50 >8.0

| pIC50 [pic50] | Binder |
| --- | --- |
| > 8 | {Bz′}-VYCEGDWLTWQC-NH2 (linker 3-12 via mXylylene) [3BP-3108] |
| > 8 | Ac-VYCEGDWLTWQ[Pen]-NH2 (linker 3-12 via mXylylene; SMILES CC(=O)N[C@H](C(=O)N[C@@H](Cc1ccc(O)cc1)C(=O)N[C@H]1CSCc2cccc(c2)CSC(C)(C)[C@@H](C(N)=O)NC(=O)[C@H](CCC(N)=O)NC(=O)[C@H](Cc2c[nH]c3ccccc23)NC(=O)[C@H]([C@@H](C)O)NC(=O)[C@H](CC(C)C)NC(=O)[C@H](Cc2c[nH]c3ccccc23)NC(=O)[C@H](CC(=O)O)NC(=O)CNC(=O)[C@H](CCC(=O)O)NC1=O)C(C)C) [3BP-3064] |
| > 8 | Hydrocinnamoyl-VYCEGDWLTWQC-NH2 (linker 3-12 via mXylylene; SMILES CC(C)C[C@@H]1NC(=O)[C@H](Cc2c[nH]c3ccccc23)NC(=O)[C@H](CC(=O)O)NC(=O)CNC(=O)[C@H](CCC(=O)O)NC(=O)[C@@H](NC(=O)[C@H](Cc2ccc(O)cc2)NC(=O)[C@@H](NC(=O)CCc2ccccc2)C(C)C)CSCc2cccc(c2)CSC[C@@H](C(N)=O)NC(=O)[C@H](CCC(N)=O)NC(=O)[C@H](Cc2c[nH]c3ccccc23)NC(=O)[C@H]([C@@H](C)O)NC1=O) [3BP-3110] |
| > 8 | Hexanoyl-VYCEGDWLTWQC-NH2 (linker 3-12 via mXylylene; SMILES CCCCCC(=O)N[C@H](C(=O)N[C@@H](Cc1ccc(O)cc1)C(=O)N[C@H]1CSCc2cccc(c2)CSC[C@@H](C(N)=O)NC(=O)[C@H](CCC(N)=O)NC(=O)[C@H](Cc2c[nH]c3ccccc23)NC(=O)[C@H]([C@@H](C)O)NC(=O)[C@H](CC(C)C)NC(=O)[C@H](Cc2c[nH]c3ccccc23)NC(=O)[C@H](CC(=O)O)NC(=O)CNC(=O)[C@H](CCC(=O)O)NC1=O)C(C)C) [3BP-3107] |
| > 8 | {DOTA-Ttds}-VYCEGDWLTWQC-NH2 (linker 3-12 via mXylylene) [3BP-2959] |
| > 8 | {DOTA-4Amc}-YCE[dP]DWLTWSC-NH2 (linker 2-11 via mXylylene; reading uncertain, also called DOTA-4Amc-Tyr-[Cys(3MeBn)-Glu-pro-Asp-Trp-Leu-Thr-Trp-Ser-Cys]-NH2) [3BP-3868] |
| > 8 | {DOTA-APAc″}-YCE[dP]DWLTWSC-NH2 (linker 2-11 via mXylylene, also called DOTA-APAc-Tyr-[Cys(3MeBn)-Glu-pro-Asp-Trp-Leu-Thr-Trp-Ser-Cys]-NH2) [3BP-3867] |
| > 8 | {DOTA-Ttds(3)}-[Nle]YCE[dP]DWLTWSC-NH2 (linker 3-12 via mXylylene, also called DOTA-Ttds-Nle-Tyr-[Cys(3MeBn)-Glu-pro-Asp-Trp-Leu-Thr-Trp-Ser-Cys]-NH2) [3BP-3870] |
| > 8 | Ac-VYCEGDW[tBuAla]TWQC-NH2 (linker 3-12 via mXylylene; SMILES CC(=O)N[C@H](C(=O)N[C@@H](Cc1ccc(O)cc1)C(=O)N[C@H]1CSCc2cccc(c2)CSC[C@@H](C(N)=O)NC(=O)[C@H](CCC(N)=O)NC(=O)[C@H](Cc2c[nH]c3ccccc23)NC(=O)[C@H]([C@@H](C)O)NC(=O)[C@H](CC(C)(C)C)NC(=O)[C@H](Cc2c[nH]c3ccccc23)NC(=O)[C@H](CC(=O)O)NC(=O)CNC(=O)[C@H](CCC(=O)O)NC1=O)C(C)C, also called Ac-Val-Tyr-[Cys(3MeBn)-Glu-Gly-Asp-Trp-Npg-Thr-Trp-Gln-Cys]-NH2) [3BP-3065] |
| > 8 | {DOTA}-YCE[dP]DWLTWSC-NH2 (linker 2-11 via mXylylene; SMILES CC(C)C[C@@H]1NC(=O)[C@H](Cc2c[nH]c3ccccc23)NC(=O)[C@H](CC(=O)O)NC(=O)[C@H]2CCCN2C(=O)[C@H](CCC(=O)O)NC(=O)[C@@H](NC(=O)[C@H](Cc2ccc(O)cc2)NC(=O)CN2CCN(CC(=O)O)CCN(CC(=O)O)CCN(CC(=O)O)CC2)CSCc2cccc(c2)CSC[C@@H](C(N)=O)NC(=O)[C@H](CO)NC(=O)[C@H](Cc2c[nH]c3ccccc23)NC(=O)[C@H]([C@@H](C)O)NC1=O, also called DOTA-Tyr-[Cys(3MeBn)-Glu-pro-Asp-Trp-Leu-Thr-Trp-Ser-Cys]-NH2) [3BP-3859] |
| > 8 | Ac-VYCE[Sar]DWLTWQC-NH2 (linker 3-12 via mXylylene; SMILES CC(=O)N[C@H](C(=O)N[C@@H](Cc1ccc(O)cc1)C(=O)N[C@H]1CSCc2cccc(c2)CSC[C@@H](C(N)=O)NC(=O)[C@H](CCC(N)=O)NC(=O)[C@H](Cc2c[nH]c3ccccc23)NC(=O)[C@H]([C@@H](C)O)NC(=O)[C@H](CC(C)C)NC(=O)[C@H](Cc2c[nH]c3ccccc23)NC(=O)[C@H](CC(=O)O)NC(=O)CN(C)C(=O)[C@H](CCC(=O)O)NC1=O)C(C)C, also called Ac-Val-Tyr-[Cys(3MeBn)-Glu-Nmg-Asp-Trp-Leu-Thr-Trp-Gln-Cys]-NH2) [3BP-3060] |
| > 8 | Ac-VYCE[dPip]DWLTWAC-NH2 (linker 3-12 via mXylylene; SMILES CC(=O)N[C@H](C(=O)N[C@@H](Cc1ccc(O)cc1)C(=O)N[C@H]1CSCc2cccc(c2)CSC[C@@H](C(N)=O)NC(=O)[C@H](C)NC(=O)[C@H](Cc2c[nH]c3ccccc23)NC(=O)[C@H]([C@@H](C)O)NC(=O)[C@H](CC(C)C)NC(=O)[C@H](Cc2c[nH]c3ccccc23)NC(=O)[C@H](CC(=O)O)NC(=O)[C@H]2CCCCN2C(=O)[C@H](CCC(=O)O)NC1=O)C(C)C, also called Ac-Val-Tyr-[Cys(3MeBn)-Glu-pip-Asp-Trp-Leu-Thr-Trp-Ala-Cys]-NH2) [3BP-3283] |
| > 8 | Ac-VYCE[Aib]DWLTWQC-NH2 (linker 3-12 via mXylylene; SMILES CC(=O)N[C@H](C(=O)N[C@@H](Cc1ccc(O)cc1)C(=O)N[C@H]1CSCc2cccc(c2)CSC[C@@H](C(N)=O)NC(=O)[C@H](CCC(N)=O)NC(=O)[C@H](Cc2c[nH]c3ccccc23)NC(=O)[C@H]([C@@H](C)O)NC(=O)[C@H](CC(C)C)NC(=O)[C@H](Cc2c[nH]c3ccccc23)NC(=O)[C@H](CC(=O)O)NC(=O)C(C)(C)NC(=O)[C@H](CCC(=O)O)NC1=O)C(C)C, also called Ac-Val-Tyr-[Cys(3MeBn)-Glu-Aib-Asp-Trp-Leu-Thr-Trp-Gln-Cys]-NH2) [3BP-3059] |
| > 8 | {DOTA-AEEA}-YCE[dP]DWLTWSC-NH2 (linker 2-11 via mXylylene; SMILES CC(C)C[C@@H]1NC(=O)[C@H](Cc2c[nH]c3ccccc23)NC(=O)[C@H](CC(=O)O)NC(=O)[C@H]2CCCN2C(=O)[C@H](CCC(=O)O)NC(=O)[C@@H](NC(=O)[C@H](Cc2ccc(O)cc2)NC(=O)COCCOCCNC(=O)CN2CCN(CC(=O)O)CCN(CC(=O)O)CCN(CC(=O)O)CC2)CSCc2cccc(c2)CSC[C@@H](C(N)=O)NC(=O)[C@H](CO)NC(=O)[C@H](Cc2c[nH]c3ccccc23)NC(=O)[C@H]([C@@H](C)O)NC1=O, also called DOTA-O2Oc-Tyr-[Cys(3MeBn)-Glu-pro-Asp-Trp-Leu-Thr-Trp-Ser-Cys]-NH2) [3BP-3869] |
| > 8 | PhAc-VYCEGDWLTWQC-NH2 (linker 3-12 via mXylylene; SMILES CC(C)C[C@@H]1NC(=O)[C@H](Cc2c[nH]c3ccccc23)NC(=O)[C@H](CC(=O)O)NC(=O)CNC(=O)[C@H](CCC(=O)O)NC(=O)[C@@H](NC(=O)[C@H](Cc2ccc(O)cc2)NC(=O)[C@@H](NC(=O)Cc2ccccc2)C(C)C)CSCc2cccc(c2)CSC[C@@H](C(N)=O)NC(=O)[C@H](CCC(N)=O)NC(=O)[C@H](Cc2c[nH]c3ccccc23)NC(=O)[C@H]([C@@H](C)O)NC1=O) [3BP-3109] |
